Results reported in publication PMC8211817.

Substrate: N[C@@H](CC(=O)O)C(=O)O
Assay: purified protein
Conditions: 300 mM Na+ outside, pH 7, 10 mM potassium phosphate, valinomycin, 300 mM KCl in lumen, mixed membrane orientation, no sybody, labelled compound

B1: GltTk (Thermococcus kodakarensis KOD1) (protein)
chain: MGKSLLRRYLDYPVLWKILWGLVLGAVFGLIAGHFGYAGAVKTYIKPFGDLFVRLLKMLVMPIVLASLVVGAASISPARLGRVGVKIVVYYLATSAMAVFFGLIVGRLFNVGANVNLGSGTGKAIEAQPPSLVQTLLNIVPTNPFASLAKGEVLPVIFFAIILGIAITYLMNRNEERVRKSAETLLRVFDGLAEAMYLIVGGVMQYAPIGVFALIAYVMAEQGVRVVGPLAKVVGAVYTGLFLQIVITYFILLKVFGIDPIKFIRKAKDAMITAFVTRSSSGTLPVTMRVAEEEMGVDKGIFSFTLPLGATINMDGTALYQGVTVLFVANAIGHPLTLGQQLVVVLTAVLASIGTAGVPGAGAIMLAMVLQSVGLDLTPGSPVALAYAMILGIDAILDMGRTMVNVTGDLAGTVIVAKTEKELDESKWIS
- Km: 0.70 ± 0.22 µM
- kcat: 0.895 s⁻¹
